Test: soluble on expression in E. coli; label from the status in PepcDB or PDB records

Question: For “MRNILKATTLENKFPLFTVENGCIVSKDADITVAFRVELPELFTVTAAEYEAIHSAWNKAVKVLPDYSIVHKQDWFIKENYAPDIQKDDLSFLSRSFERHFNERPFLNHTCYLFLTKTTKEHSRMQSNFSTLCRGFLVPKEIRDRETVTKFLEAVGQFESIMNDSGFITLTRLSSDEITGTRETAGIVEKYFSLSQTDTTTLKDISLGADEMKIGDNILCLHTLSDAEDMPGKVGTDTRYEKLSTDRSDCRLSFASPVGVLLSCNHIYNQYIFIDDHTENLKQFEKMARNMHSLSKYSRANQINKSWIEEYLNEAHSQGLISVRCHCNIMAWSDDRDELKHIKNDVGSQLALMECKPRHNTTDTPTLFWAGIPGNQADFPAEESFYTFIEQALCLFTEETNYKSSLSPFGIKMVDRVTGKPLHIDISDLPMKRGIITNRNKFILGPSGSGKSFFTNHMVRQYYEQNAHVLLVDTGNSYLGLCEMINRKTHGEDGIYFTYTTENPIAFNPFYVEDGVFDIEKKESIKTLILTLWKRDDEAPTRAEEVALSNAVSSYIGLITKDCSVTPCFNTFYEYVRNDYRAHLQEKNVREKDFDIDNFLNVLEPYYKGGEYDYLLNSDKELDLLHKRFIVFELDNIKDHKILFPITTIIIMEVFINKMRKLKGIRKLILIEEAWKAIASANMADYIKYLYKTVRKYFGEAIVVTQEVEDIISSPIVKESIINNSDCKILLDQRKYLNKFDSIQNLLGLTDKERSQVLSINLANHPNRKYKEVWIGLGGTQSAVYATEVSLDEYFTYTTEETEKMELFALSEKLGGNLELAIKRLAESKRNPEK”, which “soluble on expression in E. coli” value is on record?
Answer: The value was “not soluble”.

Question: For “MRNTLKAATLESKFPLLAVEADCIISKDADITAVFEVDLPELFTVTAAEYEAIHAAWAKAIKVLPNYTVVHKQDWFIREDYRSQTDKENLSFLSRSYEMHFNERPFLNHKCYLYLTKTTKERMRMQSSFSSLCRGFIIPKEVDKDTTAHFLDTVGQFARIVNDTGLVHLRRLVGDEITGTENKAGLVEKYFCLSMENTTALEDIELGDDGLRVGDKHVSVHTLSELDALPSKVGTDCRYERLSTDKSDCKLSFASPVGLLLSCNHLYNQYIFLDDSGENLQRFEKNARNMQSLSKYSRSNQINKEWIDLYLNDAHSFGLTSVRAHCNIIAWTDNPMEVKNMRNDVGSQIAMMECKPRHNTVDAATLYWAAIPGNGADFPAEESFYTFIEQALCFWVEETNYRSSVSPFGLKMSDRISGKPLHVDISDLPMKRGVTTNRNKFVLGGSGSGKSFFMNHLARQYYEQGTHVVLIDTGNSYQGLCSLIHQKSGGKDGIYFTYTDENPIAFNPFFTDDKVFDIEKRESIKTLILTLWKKDNEPATRSEEVALSNAVSLYIRRIKEDESIVPSFNTFYEFVKTDYRRILEEKEVREKDFDLAGFLNVLEPYYRGGEYDFLLNSDKQLDLLGKRFIVFEIDQIKDHPILFPVTTIIIMELFINKMRRLKGVRKMIIIEEAWL”, which “soluble on expression in E. coli” value is on record?
Answer: The value was “not soluble”.

Question: With “MRPDVAFALPALAGGGVERVYLDLAGAMVKEGLRVDFVLARAEGPLLAQLPQGVRLWDLGVPRRLPLLRAYTPLGVYLAQARPRVVLPDWDYLDWVPLQAAWRSRTPFLWVLHNAPAYLKDVPNPVKRHTALWAARQTLKRAVNHPLGRVGAVSRGVAQAFARFGGVPEERICVLPNPIHVDRVRRLSHENVPLPATPYFLALGRLHPQKGFSLLLEAFSIFAKHHPDVHLLILGEGPERPRLEKLAHTLGLTSRVAFLGFVVNPYPYLRGAKALVITSRYEGFSMVALEALALRVPVVAVESEGGLLEALGDGRFGIVTPRSPQALAHAMERVLSDGFAWDETALKDHLNQYSPEAALRSYMSVLEEIWR” as the sequence, how does the “soluble on expression in E. coli” value read?
Answer: The value was “soluble”.

Question: Which “soluble on expression in E. coli” value does the source give for “MRPILLPDPPSLSTGVPDIFEQGGSHNVVRRAVVIGNGFPGSENQCIGLVRALGLSDNHLLYVFSLLGLSLSRSGNFILFSTSLECMNVQRRRNYLNFYGNNELRIESLVEHDAGAITEFRLQGTLRVTRPKGGLNEWLHWLPVGFHKKLDFILRHIYLYSRLMLGSKQSKYISSVPSENGGNVGLASILEADVKGIVNLARQTYEKDGPLIVIACGRDTISIASSIRRLASENVFVVQIQHPRSHLNRFDMVITPRHDYYPLTLEAQEQVPRFMRSWITPREPPQDHVVLTTGALHQIDYASLRKAASAWHDEFAALPKPLVVVNIGWPRSNCRYGADLAKQLTDSLLNVLATCGSVRITLSYKTPAKVSRVIFKELGDNPKVYIWNGQEPNPYMGHLAWGDAFVVTADSVSLISEACSTGKPVYVVGADHCKWKIAEFQKSLRERGVVRSFTGFEDMSESWSYPPLNDTAEAATRIRRELAARGWSLRS” here?
Answer: The value was “soluble”.

Question: With “MRQIVPKVVVVGAGMGGLASAIRLARAGCEVTLLEAREAPGGRMRTLPSVAGPVDAGPTVLTLREVFDDIFEVCGQKLDHHLTLLPQPLLARHWWLDGSTLDLTTDLEANVEAVAAFAGAREARAFRRFHDLSARLYDAFDRPMMRAARPDLRAIATGALKAPRTWPALLPGMTLDRLLRLFFRDRRLRQLFGRYATYVGGTPYGAPGVLALIWAAEARGVWAIEGGMHRLALALARLADDQGVRLRYGAPVARILRQGGRATGVQLADGRTLPADHIVFNGDPAALLAGCLGDGPQDAVPEDRIHPRSLSAWVWSYAARASGPPLVHHNVFFADDPRREFGPIAAGQMPEDATLYICAEDRSGGQLPDGPERFEIIMNGPPGRPAKPEDFAQCRSRTFDRLRQFGLTFDPVPGETSLTAPSGFASLFPASQGSIYGLSPHGALASLKRPLARTALPGLWLAGGGAHPGAGVPMAALSGRHAAEAILADLASRSRLEHHHHHH” as the sequence, how does the “soluble on expression in E. coli” value read?
Answer: The value was “not soluble”.

Question: Which “soluble on expression in E. coli” value does the source give for “MRRAAIFFFYDERGQVDDYIFYLLEKLRPFVETIIFVSNGEISQSSEASLRSTVDETIIRENTGFDVGAYRDGLEFIGYDKLGDYDEILLLNHTFYGPVFPFSEMFSEMERRACDFWGISDHKEVSPNPFTGAGVLPRHLNSHFIAVRKAMLESIAFRNYWERMPKITDYAESVLLHESRFTGFFENLGYKSETYLDSDKYNSAYPVMIDVDQIYNDRSPILKRRLFFNDPTFLDKNAVDLPRALRVLKETSDYDLNLIWRNVLRSSDLRTLNTNAALMSVLPDKRIKGDGAAADYGKIAVCAHIYYTDMLDEILGLTGNIPVPYDFIATTNTPEKKAEIETALANRPGVKNVIVRVVEQNRGRDMSSLFISLRDLLVDDRYDLVCRLHTKKSPQVQSSMGNLFKRHMVDNLLNSRGYVHNVLDMFHDNPSVGLAIPPIFHISYPTMGFSWFANKPKVEETARLLNINVKFDENTPVAAYGTMFWFRPRALRKMFEHKWKWEEFNAEPDHVDGGFAHALERLIAYAVQNAGYTTQHIMCAHQAEHNYTMLEFKLQKLASFMPSGDFPLQCHMVSEWRKGGYPLGSHVSATPAPMPTSVKHSLAELNLAVKSSLRFRAPILFRALRPIYRGTRAILKPNSRRSGGLEHHHHHH” here?
Answer: The value was “soluble”.

Question: With “MRRFDCTVVAIHDDASLGCRLPGANKALRIQLNAVELPAAEPWRRRAREALEDMLLGKSATIREQGRDARFRILGAAWVTPADCPTCGHTLDAGLALLTIGLASWRDAPDSGQTAEARGQYRFAEEEARARKAGQWRP” as the sequence, how does the “soluble on expression in E. coli” value read?
Answer: Its value is “soluble”.

Question: For “MRRIILIFSLLTLSLMAFGEEIKVDRSVEESITKDYDQDGVYSSYEKALRRAQESVYVKLPEKRGYWYTILDRVKAEEEELMPEEINRMRRR”, which “soluble on expression in E. coli” value is on record?
Answer: Its value is “not soluble”.

Question: Which “soluble on expression in E. coli” value does the source give for “MRRNRFLAPLLVAASLLATAPAHGQPAPAAVLASDEAQRIALDAYVYVYPLVVMDLSRRQDTGGKGPGHAPANTFAHERRLPQADFRRLPRPNFDMLRSSAWLDLSTGPVVISTPETHGRLYTLSVLDMWTDIFAVLGKRTTGTARGNHAIVPPGWTGVLPRGMHRIDAPTAQVQARLYVQTGGSSEYPGVHAVQDGFILTPLAEWNQQAQSVRLRSDPDLDALTPAQQQVEGMNAEDYFGYAAELLRKHAPHATDQPMLARLRRLGIAPGQQLAFARLPTTVQQALRHAVRNGPQALRDSLPATGSLANGWQADADGAGVYGNAYLRRAVTTQARLGASLPEDVTAMLLLADAAGRPLEGGQRYVLRFEADQLPPAGALWSLNAYDAQGYPVGNGFNRYALGDRDPVRYNPDGSLELYLQRDPPGPDDQANWLPTGEGAPGVILRIYLPQASVLAGRWVPPAARRVEAADDAAALEHHHHHH” here?
Answer: The value was “not soluble”.

Question: Which “soluble on expression in E. coli” value does the source give for “MRRRRVLLLLLSTTTFLRVSTAQQDEPKASVVEVQTKLGTVRGTESDHGNKRVRSFLGVPFAEPPINEHRFKKPTPARPWNGTISANTLSPACFQGRDSYDPTFWGSEMWNANTPVSEDCLYVNIWAPADAYNLTVLVWLFGGGFWYGSPSLLLYDGKELATRGNVIVVNINYRVGPFGYLFLDHEDVPGNMGMLDQQLALYWIRDHIFSFGGNPARISLVGESAGAASIVAHLIAPASKGLFQNGILQSGSLDNKWSMDSPKRAKQKSTALADLVGCNQTKITDQTACLRNTPAQLLIDNIWNVGLNFLEFPFAIVSKDQNFFKHLDGFIALREGTYSTDVNLMFGINHDEGNFWNIYNLAKFFDKQSVKPGLDRDEFHECVDTAFAVQPELVRTAAKYVYSDPKCTDPKKKTDFYTEQVNQMVGDYFFTCDSIWFAHNYPKMAGNQSNVFVYYFDQPSSANPWPKWTGVMHGYEIEYVFGVPLHNTTAGYTKEEMDVSEKVIDFWTTFANTGVPSLRKRAVGTTQKIKWDRYDGTDHTTWMNIKTGSFRMIQEIKKVECDLWRNAKDMEYSAYKEELATTSSSTLTQYTIYLILLSAFQLVFNFF” here?
Answer: The value was “not soluble”.

Question: With “MRSALSLKPSNGNAAKSQAVNNKNVIKNAPLGGKLTRQIGTSNLLQQALPSKKIDESPIIKIDAKDSFKVFEDQEPEKENSSENVDATEKDSNVIPAEDNNMIHELERKMEEKSRAEKLKFKFMQTRDNSDITSRFSEPPSEFSVLCDDDDCDKVSVASSTFTTSVRATFSSFHFDENQRKKEFGKEEAVKKIQKKAAKEARDDSMFSSEEFFPDIIKYMLHRQTKNRASHECFDIQSQVNEEMRTILIDWFSDVVKEYNFQKETFHLAVSLVDRALSMFNIDKMRFQLVGTTSMMIAVKYEEIFPPEIEDFALITDNTYRVPDILLMERFLLGKFDFVVAMPTSSWFGTCFAKRMNFTKKMRNTVHYLLELSLIDVHFLRYRPSDIAAAACCFANLQADVESWPQKMVDDTGISTEDFVDVLRDLHRMYLNASTADFKSIFYNYSETAQMEVALLPAPTDKLRSMFPSIFVTAPKSSNDSSSPQ” as the sequence, how does the “soluble on expression in E. coli” value read?
Answer: The value was “not soluble”.

Question: Which “soluble on expression in E. coli” value does the source give for “MRSDTSVEPEGANFIAEFFGHRVYPEVVSTEAARNDQATGTCPFLTAAKLVETSCVKAETSRGVCVVNTAVDNERYDWLVCPNRALDPLFMSAASRKLFGYGPTEPLQFIAAPTLADQAVRDGIREWLDRGVHVVAYFQEKLGGELSISKTDSSPEFSFDWTLAEVESIYPVPKIKRYGVLEIQTMDFHGSYKHAVGAIDIALVEGIDFHGWLPTPAGRAALSKKMEGPNLSNVFKRTFYQMAYKFALSGHQRCAGTGFAIPQSVWKSWLRHLANPTLIDNGDGTFSLGDTRNDSENAWIFVFELDPDTDASPRPLAPHLEIRVNVDTLIDLALRESPRAALGPSGPVATFTDKVEARMLRFWPKTRRRRSTTPGGQRGLFDA” here?
Answer: Its value is “soluble”.

Question: For “MRSLADFEFNKAPLCEGMILACEAIRRDFPSQDVYDELERLVSLAKEEISQLLPLEEQLEKLIALFYGDWGFKASRGVYRLSDALWLDQVLKNRQGSAVSLGAVLLWVANRLDLPLLPVIFPTQLILRIECPDGEIWLINPFNGESLSEHMLDGWLKGNISPSAELFYEDLDEADNIEVIRKLLDTLKASLMEENQMELALRTSEALLQFNPEDPYEIRDRGLIYAQLDCEHVALNDLSYFVERCPEDPISEMIRAQINNIAHKHIVLHMAGDPLEHHHHHH”, which “soluble on expression in E. coli” value is on record?
Answer: Its value is “soluble”.

Question: Which “soluble on expression in E. coli” value does the source give for “MRSRPTEGNLLVSIGIPFLNPGPYLDLAVRSVFAQTYLNWELILVDDGSTDGSYERAVAIQDPRVRVLRDGQNKGLPARLNEIVRLAKGELVARMDADDAMHPLRLEKQVGFLQANPELDGVTTGAYLIDAEDRPIALLPGRQPSAQEVLARGGFLHPSLLARKSWFEAHPYSLDYPRAEDRELFVRTFKTSRLHVLSEPLYFYRWFGVPRGKTLRIGYRSERKVMWKYGPNLVGWGPSLRLIALSFGKELLTWFLEWTHLEKGFQTRRAFQPLLEMDQREALRTLKVIRETCVPGWD” here?
Answer: Its value is “soluble”.

Source: the DeepSol protein solubility set
